This data set is described as follows: label from the status in PepcDB records.
For the sequence “MERKLGISLYPEHSTKEKDMAYISAAARHGFSRIFTCLLSVNRPKEEIVAEFKEIINHAKDNNMEVILDVAPAVFDQLGISYSDLSFFAELGADGIRLDVGFDGLTEAKMTNNPYGLKIELNVSNDIAYLENILSHQANKSALIGCHNFYPQKFTGLPYDYFIRCSERFKKHGIRSAAFITSHVANIGPWDINDGLCTLEEHRNLPIEVQAKHLWATGLIDDVIIGNAYASEEELEKLGNLNRYMLQLKVHFVDEATEVEKRATLQELHVRRGDITEYMVRSTEVRKKYKDYDFPVRESVLQERGQVVIGNNSFGKYKGELQIILKEMPIDERKNIVGTIAEEELFLLDYVGAWTQFTCVE”, the protein production result was “not failed”.
For “MERKNNQRSDEDEERKEQSEEERVERKEEAPRKRQKQDDVSTGKETLSKKRKIIDNDGDNVPTRSNKQSRVDDADNVDGPPVGDNDDHPTAQRKSKRGTIPSIHTQPPFTAEKKKHPILYPFAKVDASRVEKLAEGKKSRKCK” the value was “failed”; for “MERLKLYFSYFKNKILKKYESKKAQSVIDTEEIKEEIWEADFSKKEKARFIEETGDGYQSLFEENLDGKHSYSLELKRKHLYAWALNPLFRYKDFVLDAEIELPVFTDNFFPEENTSAGYCAAGFVFRHISDKAFYSLLISDKGWIRLEAVVNSTPMPILGWTKPLTDIDSSKFKIKLICAGTSITVLVNNTWLGKFESDIVQAAGKIGFAGQNWETYPKVKFYLNEFKIISQPLLVENTDSAANNPDAISPEAYINLASTYYAMGQYVAAIYQIKQAWKLREPGIQDHILAGRIYFAQHLNEEAEKEFLHALDIEHDNYEIMAELAGLYYQSGNMKKLGDILKDIPNDEIEKSVLLCSLKGHFLNSQGKHEKSAAFYAKAFELKPDQGLLKYNEANELNLAGKTAEAVEAYTEAGKLFLASEEYNEMANVINALERIAPEDERTWALSGKFYYAVDNKWEAKLNFKKLCDAKTSDSTIWYLYGLLIHDEKPEEAVKFFKKACKLGPEHGLYHFRLAEALYLIGEDCSVPLSEAEALEPNNGWIFNLKALCAIDEDAFFDAQIEIEKARKMLPDEIVILENYVEIMRLQGRLKECAPLFDIEAGTADLAAERNRAEAFHIYANALFFDEQYDEADIWYQKALKLKPVDPVLLTDKAENSIKIGYLNDADGLLVKAMDIEPTERIYRLISLLAVKKGDHARAEVSLRQAIEEFGESEELLFDLTNLYIQTNRKEKAKETIKLLTNCEDQERLKELKALLKK”, “failed”; for “MERNSWAEQWDSNQQSSGKTTHGGEGGGASSKYKEKVGAGLGKTKAAASSGLKKVKIGTSLGLNWVKDKYNKTTTKN”, “failed”.
For “MERRLCAILAADMAGYSRLMERNETDVLNRQKLYRRELIDPAIAQAGGQIVKTTGDGMLARFDTAQAALRCALEIQQAMQQREEDTPRKERIQYRIGINIGDIVLEDGDIFGDAVNVAARLEAISEPGAICVSDIVHQITQDRVSEPFTDLGLQKVKNITRPIRVWQWVPDADRDQSHDPQPSHVQH” the value was “not failed”.
For the sequence “MERSAFMELDAGSRLVMHLREWPALLVSSTGWTEFEQLTLDGHNLPSLVCVITGSVDLGVCLHMSSSGLDLPMKVVDMFGCCLPVCAVNFKCLHELVKHEENGLVFEDSEELAALQMLFSNFPDPAGKLNQFWKDLRESQQLRWDESWVQTVLPLVMDIQLLGQRLKPRDPCCPSRSFFSESQGKPF”, the protein production result is “failed”.
The result for “MESGHRFDAQTLHSFIQAVFRQMGSEEQEAKLVADHLIAANLAGHDSHGIGMIPSYVRSWSQGHLQINHHAKTVKEAGAAVTLDGDRAFGQVAAHEAMALGIEKAHQHGIAAVALHNSHHIGRIGYWAEQCAAAGFVSIHFVSVVGIPMVAPFHGRDSRFGTNPFCVVFPRKDNFPLLLDYATSAIAFGKTRVAWHKGVPVPPGCLIDVNGVPTTNPAVMQESPLGSLLTFAEHKGYALAAMCEILGGALSGGKTTHQETLQTSPDAILNCMTTIIINPELFGAPDCNAQTEAFAEWVKASPHDDDKPILLPGEWEVNTRRERQKQGIPLDAGSWQAICDAARQIGMPEETLQAFCQQLAS” reads “not failed”; that for “MESIQSSLKHMTGNRSFEKQFTQLKEAVFRSPHVQLFLEEHPSLSPITLEQGLSKLYEYQKEQSHCAHCPGLQKCPNLMKGYQPTLYVERDSLELSYSPCPLKEEEEREKKKRSLIRSLYIPKEILEAKFDDVESEPGRSIASHRALEFALSAKPGEDGMGLYLYGKFGVGKTFLMGAIANELKDRGIDSTIVYVPDFFRELKQSIGDGTFQQKLDFVKNAQVLIFDDIGAETMTSWVRDDVLGVILQYRIMEKLPTLFTSNYDYDELEEHLAYNDKSGTELLKAKRVMERIRHYTVSVMVQGQNRREHQSLEHHHHHH”, “not failed”; that for “MESLPFVAAQPTIVPQLQQQVTGLTSSLNSQEKKELTHKLESIFNNTQVQIAVLIVSTTKDETIEQYATRVFDNWRLGDAKRNDGILIVVAWSDRTVRIQVGYGLEEKVTDALAGDIIRSNMIPAFKQQKLAKGLELAIIALNNQLTSQHQYPANPSESESTSSTDHYYFAIFWVFAVMFFPFWFFHQGSNFCRACKSGVCISAIHLLDLFLFSDKTFSIAVFSFFFTFTIFMVFTCLCVLQKRASGRSYHSDNSGSAGGSSGGASGRWLEHHHHHH”, “failed”.
With “MESLRSERNQYRILVDITNSVLAHLDMDGLISEVSKEIHRFFGLNHISLMLCRTSSQNSHEGILYSSRYQTGKSVIRQQRKFSSANNKAEEIIHQNKPVLIDINKEDQDDVLIKRLVKQNMQTALLLPLAFNRKPLGLLILAHEISSVFTEETCQLLQQIAARIGIAIENAAAYEEITHLKDS”, the protein production result is “not failed”.
For “MESLTQYIPDEFSMLRFGKKFAEILLKLHTEKAIMVYLNGDLGAGKTTLTRGMLQGIGHQGNVKSPTYTLVEEYNIAGKMIYHFDLYRLADPEELEFMGIRDYFNTDSICLIEWSEKGQGILPEADILVNIDYYDDARNIELIAQTNLGKNIISAFSN”, the protein production entry was “not failed”.
For “MESMVAPGEVLMSQAIQPAHADSRGELSAGQLLKWMDTTACLAAEKHAGISCVTASMDDILFEDTARIGQIITIRAKVTRAFSTSMEISIKVIVQDKFTGIQKLLCVAFSTFVAKPVGKEKVHLKPVLLQTEQEQVEHNLASERRKVRLQHENTFNNIMKESSRFSDSICNEEEGTATTMGTSVQSIELVLPPHANHHGNTFGGQIMAWMETVATISASRLCHGHPFLKSVDMFKFRGPSTVGDRLVFSAIVNNTFQNSVEVGVRVEAFDCQEWAEGQGRHINSAFLIYNAVDDQEKLITFPRIQPISKDDFRRYQGAIARRRIRLGRKYVISHKKEVPLSAQWDISKKGSLSNTNVEALKNLASKSGWEITTTLEKIKIYTLEEQDAISVKVEKLVGSPAHIAYHLLSDLTKRPLWDPHYISCEVIDQVSEDDQIYYITCSVVNGDKPKDFVVLVSRRKPLKDNNTYTVALRSVVLPSVPSSPQYIRSEVICAGFLIQAVDSNSCTVTYLNQMSDSILPYFAGNIGGWSKSIEEAAASCIKFIENATPDGLKSVL” the value was “failed”; for “MESPPMFNSVEDECRYWKERSKQYHKEWTDVKQEYDEFVEQSREMEIEMDATLDQKQSIIKDLTAKLTMFERENESLKLKLESHGIDMSNMEKQLETVKKDRDTMKVYLRQLEQKNDDLERAHRILNESIENFEKMLDQAYEKNALLELEVDEKGLLQEKLQRLMDETRDLKQELNVKSRFTPVVNGTSVPTANDTNTVNSSMNSSASLPNGIVANGELVKHDNAVATRATSVSVNALNGSLVNRNEYNQQHSLKSDGDETEDVPREWSANAAATPLLPAIHTSGAGRTALLLAGCRVVWILQFSVIHKPQIRNPIT”, “failed”.
As to “MESSPSGSEPPQKVVSKLQKVGWRATMIFNLGFAAYIFAIKREKDIDADEKKKVKKGSEARHKGVKKGAVNTEIEKKGAEETDKAKEAETAIPEKEETKLIPELDPLFEFTDATDQSMFQTVATEHVKVARKPIPEDEQKELFKWILEEKRKIEPKDRKEKKQIDEEKAILKQFIRAERIPKLLPDDSVDSSLRDWDKFFSK”, the protein production entry is given as “failed”.
For “MESTLSQLLPEALATRRRALAQMITGLHLAEHVHLSKVAGRIAGTAQLESKTRHLRRFLGNENVDPERFYSPVRDRLIEWAAQGAETQGSGPIRLLVDTVELSGERQVLMAGIAYRRRALPICWETYRREGVTNAEQQISLLKALVGRFPDEAEVVVVGDGAFHSTDLMDFIEDQGWHFCLRLHADTYIRSFKDSSKGFPKEGTWKQLRDLVPEEGERRYLQDVIVTKDNEYGPVGLALCQAEDEDDP” the value was “failed”; for “MESVSCSAAAVRTGDMESQRDLSLVPERLQRREQERQLEVERRKQKRQNQEVEKENSHFFVATFARERAAVEELLERAESVERLEEAASRLQGLQKLINDSVFFLAAYDLRQGQEALARLQAALAERRRGLQPKKRFAFKTRGKDAASSTKVDAAPGIPPAVESIQDSPLPKKAEGDLGPSWVCGFSNLESQVLEKRASELHQRDVLLTELSNCTVRLYGNPNTLRLTKAHSCKLLCGPVSTSVFLEDCSDCVLAVACQQLRIHSTKDTRIFLQVTSRAIVEDCSGIQFAPYTWSYPEIDKDFESSGLDRSKNNWNDVDDFNWLARDMASPNWSILPEEERNIQWD”, “not failed”.
For “METAKDGEQSPSEASPPTQAGPETISEPVPLEEEGQPLYHEETIDLGGDDFASEETEPTSEGSHNFGDKLNEHMMESVLISDSPNNSEGDVGDLGCLQDVGEPPRGATDHRLPDSTDKEVVDTLSNGSETDGDDTPRDISDMTPDSRASLKEDSTQEDVPAMPALENAGTEEVGPKDSLVPREEQTSEVSSSQSSSKDEPLPVCTIFSQATSTSSQPHLFLQDGFESQMVKSPSFSSTSETSAKTPPPMVQPSPSLSTFFGDTMSSNSLASDFFDSFTTSTFISVSNPNAGSPVPEKLASLTAPVGEKSPDSTSPSYSTRMDRSESGVSRAALDVPESPKPFSQIQAVFAGSDDPFATALSMSEMDRRNDAWLPSQATREVLMSVATQQYGTVFIDKENLTMPGLKFDNIQGDAVKDLMLRFLGEKAAAKRQVLNASSVEQSFVGLKQLISCRNWRAAVDLCGRLLTAHGQGYGKSGLPTNHTTDSLQLWFVRLALLVKLGLFQNAEMEFEPFGNLDQPDLYYEYYPHVYPGRRGSMVPFSMRILHAELQQYLGNPQESLDRLHRVKTVCSKILANLEQGLAEDGGLSSVTQESRQASVQLWRSRLGRVLYSMANCLLLMKDYVLAVNAYLTVIKYYPEQEPQLLSGIGRILLQIGDIKTAEKYFQDVEKVTQKLDGLQGKIMVLMNRAFLYLGQNNFAEAHKFFTEILRMDPTNAVANNNAAVCLLYLGKLKDSLRQLEAMVQQDPRHYLHESVLFNLTTMYELESSRSMQKKQSLLEAVASKEGDSFNTQCLKLA” the value was “failed”.
The result for “METEGSLSILHVDDDAELGALVELYLEREDSGLDCTVTTETNPETALSLIRSSETNFDCIVSDYDMPEMNGIDFLEAIRETHPELPVLLFSGEETGDVAAEIIQAGVTDYLKKSVGTDQYTSLIRRVEHAVDSDGSFETGNEVKLSGVGVIGTDERFERVGETYASYYGYESEELVGKHWSELHPSNEVQHIRTHVIPAVRSGGKWTGQSKGLRADETTFTESKMVTALEDGRMLIAVDEIDDSGLAE” reads “failed”; that for “METGAGIGLYPLHRCKTIYLVRHAQGIHNVDGEKNYKAYMSHDYFDAELTQLGWKQVDSLRKHVHSSGLHKKIELVISSPLMRTLQTAVGVFGGEGYTDMSDVLPLMVANAGNSSRAAISSLNCPPVITEESCREHLGVHPCDQRRSISDYQFLFPAVDFSLIESEEDKLWKADVRETIEELAARGKKFLNWLWTRKEKEIAIVTHSGFLFHTLNALQNECHPDVKKEICGHFANCELRSMVIVDRSMLGSDSSVTDYPGKIPKGIDLPSDAVVDDNNIKVE”, “not failed”.
